Columns and labels:
rat hippocampal slices = assay: Long-term potentiation (LTP) in rat hippocampal slices, theta burst stimulation; conditions: after TBS, n=4
Method: Since agintonin induces NMDA receptor activation as confirmed above, an examination was made of the effect of gintonin on LTP induction in rat hippocampal slices (Moon et al., Neursci. Lett. 466, 114-119, 2009; Lee et al., J Neurosci. Res. 89, 96-107, 2011). In this regard, LTP induction was studied after treatment with three different concentrations of gintonin (0.1, 1, and 10 μg/ml).
Male rats 3-5 weeks old (Sprague-Dawley strain) (Charls River, U.S.A.) were quickly sacrificed by cervical dislocation without using an anesthetic (Steidl et al., Brain Res. 1096, 70-84, 2006). With the aid of a rongeur (Fine Science Tools Inc., USA), the cranium was removed, and the brain was excised, immediately cooled in ice, and immersed in artificial cerebrospinal fluid (saCSF) containing oxygen-saturated (95% O2/5% CO2) sucrose (composition mM: Sucrose 248, NaHCO3 26, glucose 10, KCl 3, CaCl2 2, MgCl2 1, HEPES 10, pH7.4).
The hippocampus was sectioned into 400 μm slices using vibratome (MA752 motorised advance vibroslice; Campden inc.) and the hippocampal slices were stabilized in artificial cerebrospinal fluid (aCSF) (composition mM: […], NaHCO326, Glucose 10, KCl 3, CaCl2 2, MgCl2 1, HEPES 10, pH 7.4) for 1 hr (Lelong and Rebel, J Pharmacol Toxicol Methods. 39, 203-210, 1998).
OHSCs were incubated according to the Stoppini method (Stoppini et al., J Neurosci Methods 37, 173-182, 1991), and all procedures were conducted on a sterilized bench.
Immediately after excision from the cranium, the rat brain was immersed in an ice-cold HBSS-medium (LB 003-01, Sigma, St. Louis, Mo., USA), and the hippocampus was separated and sectioned at a thickness of 400 μm using a tissue chopper (Mickle Laboratory Engineering Co., Surrey, UK). The hippocampal slices were placed on a membrane insert (polytetrafluorethlene membranes, 0.4 μm Millicell-CM, Millipore Co., Bedford, Mass., USA), and immersed in a culture medium. […]

mice = assay: Busulfan-caused diarrhea and mucositis in mice; assay type: in vivo, mouse; conditions: for Diarrhea (cases / mice) / Mucositis (cases / mice): gintonin 100 mg/kg oral 3 days before, observed 10 days
Method: In this Example, an examination was made of the inhibitory activity of gintonin against chemotherapy-induced diarrhea and mucositis. For this, gintonin-treated mice were administered with busulfan, and observed for diarrhea and mucostitis.
Briefly, mice were orally administered at a dose of 100 mg/kg with gintonin 3 days before intraperitoneal injection with busulfan (40 mg/kg). For the control, physiological saline was used, instead of gintonin.

[1] = tested on: GPR87, GPR40, GPR41, GPR43 and GPR120; assay: Intracellular free Ca2+ in B103 cells expressing other orphan GPCRs and fatty acid receptors; assay type: cell-based; conditions: B103 cells expressing the other receptors (GPR87, GPR40, GPR41, GPR43, GPR120)
From the text: Optionally, the method may further comprise (8) pre-treating the suspended B103 cells with LPA receptor antagonists and LPA receptor-mediated signaling-relevant drugs (e.g., pertussis toxin, PLC inhibitors, IP3 receptor antagonists) to examine whether the cells decrease or increase in intracellular free Ca^2+, prior to treatment with gintonin; (9) performing site-directed mutagenesis to identify an amino acid of LPA receptors with which gintonin interact to activate the LPA; and (10) examining whether gintonin activates orphan GPCRs including GPR35 and GPR87, and free fatty acid GPCRs including GPR40, GPR41, GPR43 and GPR120, all known for activation by LPA.
In addition, GPR35 (Oka et al., Biochem Biophys Res Commun. 395, 232-237, 2010) and GPR87 (Tabata et al., Biochem Biophys Res Commun. 363, 861-866, 2007), both known as orphan GPCRs reacting with LPA, and GPR40, GPR41, GPR43 and GPR120 (Hirasawa et al., Biol Pharm Bull. 31, 1847-1851, 2008), all known as fatty acid receptors reacting with free fatty acids, were expressed in B103 cells when gintonin activity was tested.

[2] = busulfan 40 mg/kg i.p., gintonin 100 mg/kg oral
[3] = busulfan 40 mg/kg i.p., listed as Gintonin + Busulfan

B1: gintonin: ginseng-derived glycolipoprotein; structural protein of ginseng major latex-like protein (MLP151) and ribonuclease-like storage proteins; crude gintonin used in tests (protein)
chain 1: MGLTGKLICQTGIKSDGDVFHELFGTRPHHVPNITPANIQGCDLHEGEFGKVGSVVIWNYSIDGNAMIAKEEIVAIDEEDKSVTFKVVEGHLFEEFKSIVFSVHVDTKGEDNLVTWSIDYEKLNESVKDPTSYLDFLLSVTRDIEAHHLPK
chain 2: RSDYPWAMFALRLQWPAGFCEVNNACDTKSLLNTFTIHGLYPYNAKGTPALYCDGTAFDVNSVSDFLAEMHLAWPSHETNTEDIQFWEHEWKKHGRCSEALLKQTDYFRTALAFRKAFDIVGLLNQEGIYPNNDLYRPKMIKEAIKKHLNAVPEIDFTKNENSEYVLTDINVCVNQQATRFVDCPTDDATDDYRLKFVRLPSKMKFADPRTNSII
B1 was tested, and the “total field excitatory postsynaptic potentials (total fEPSPs)” value (rat hippocampal slices; gintonin 0.1 μg/ml) was 180.90±7.53%, the “total field excitatory postsynaptic potentials (total fEPSPs)” value (rat hippocampal slices; gintonin 1 μg/ml) was 205.32±6.40% and the “total field excitatory postsynaptic potentials (total fEPSPs)” value (rat hippocampal slices; gintonin 10 μg/ml) was 214.14±11.55%. For the same molecule, the diarrhea morbidity rate (mice; [2]) was 20%, the perianal mucositis morbidity (mice; [2]) was 13.3% and the “Diarrhea (cases / mice)” value (mice; busulfan 40 mg/kg i.p.) was 3. The “Mucositis (cases / mice)” value (mice; busulfan 40 mg/kg i.p.) was 2, the “Diarrhea (cases / mice)” value (mice; [3]) was 3/15 and the “Mucositis (cases / mice)” value (mice; [3]) was 2/15. The “inhibition of busulfan-caused perianal mucositis” value (mice; gintonin 100 mg/kg oral) was 33.4%, the “reduction of busulfan-caused diarrhea” value (mice; gintonin 100 mg/kg oral) was “more than 30%” and the “increase of intracellular calcium level” value [1] was “not act on the other receptors”.

From patent US20140234868A1, “USE FOR GLYCOLIPOPROTEIN GINTONIN, ISOLATED AND IDENTIFIED FROM GINSENG, AS A NATURAL MEDICAL-PLANT DERIVED LIGAND” (KONKUK UNIVERSITY INDUSTRIAL COOPERATION CORP., priority 2011, published 2014)
